Test results: the supplement of paper PMC11246515
± gives the standard deviation of the averaged measurements.

Experiment: total protein half-life in vivo (active degradation + dilution); higher = more stable protein
[1] = E. coli NCM3722 delta-clpP delta-lon delta-hslV, growth: N-lim chemostat, doubling time 6 h
[2] = E. coli NCM3722 delta-clpP, growth: N-lim chemostat, doubling time 6 h
[3] = E. coli NCM3722 delta-lon, growth: N-lim chemostat, doubling time 6 h
[4] = E. coli NCM3722 delta-smpB, growth: N-lim chemostat, doubling time 6 h
[5] = wild type E. coli NCM3722, growth: C-lim chemostat, doubling time 3 h
[6] = wild type E. coli NCM3722, growth: C-lim chemostat, doubling time 6 h
[7] = wild type E. coli NCM3722, growth: C-lim chemostat, doubling time 12 h
[8] = wild type E. coli NCM3722, growth: N-lim chemostat, doubling time 6 h
[9] = wild type E. coli NCM3722, growth: N-lim chemostat, doubling time 12 h
[10] = E. coli NCM3722 delta-hslV, growth: N-lim chemostat, doubling time 6 h
[11] = wild type E. coli NCM3722, growth: P-lim chemostat, doubling time 6 h
[12] = wild type E. coli NCM3722, growth: P-lim chemostat, doubling time 12 h

Row | Sequence | total protein half-life in vivo [1] [h] | total protein half-life in vivo [2] [h] | total protein half-life in vivo [3] [h] | total protein half-life in vivo [4] [h] | total protein half-life in vivo [5] [h] | total protein half-life in vivo [6] [h] | total protein half-life in vivo [7] [h] | total protein half-life in vivo [8] [h] | total protein half-life in vivo [9] [h] | total protein half-life in vivo [10] [h] | total protein half-life in vivo [11] [h] | total protein half-life in vivo [12] [h]
1 | MRNIIKLALAGLLSVSTFAVAAESSPEALRIGYQKGSIGMVLAKSHQLLEKRYPESKISWVEFPAGPQMLEALNVGSIDLGSTGDIPPIFAQAAGADLVYVGVEPPKPKAEVILVAENSPIKTVADLKGHKVAFQKGSSSHNLLLRALRQAGLKFTDIQPTYLTPADARAAFQQGNVDAWAIWDPYYSAALLQGGVRVLKDGTDLNQTGSFYLAARPYAEKNGAFIQGVLATFSEADALTRSQREQSIALLAKTMGLPAPVIASYLDHRPPTTIKPVNAEVAALQQQTADLFYENRLVPKKVDIRQRIWQPTQLEGKQL | 5.27 ± 1.8 | 5.07 ± 0.72 | 4.66 ± 1.7 | 5.32 ± 0.25 | > 4 | 4.74 ± 0.1 | 8.06 | 5.64 | 12.52 ± 0.069 | – | – | –
2 | MKRPALILICLLLQACSATTKELGNSLWDSLFGTPGVQLTDDDIQNMPYASQYMQLNGGPQLFVVLAFAEDGQQKWVTQDQATLVTQHGRLVKTLLGGDNLIEVNNLAADPLIKPAQIVDGASWTRTMGWTEYQQVRYATARSVFKWDGTDTVKVGSDETPVRVLDEEVSTDQARWHNRYWIDSEGQIRQSEQYLGADYFPVKTTLIKAAKQ | 6.57 ± 0.37 | 6.43 | 6.59 ± 0.19 | 5.12 ± 0.2 | – | – | – | – | – | – | – | –
3 | MSLDINQIALHQLIKRDEQNLELVLRDSLLEPTETVVEMVAELHRVYSAKNKAYGLFSEESELAQTLRLQRQGEEDFLAFSRAATGRLRDELAKYPFADGGFVLFCHYRYLAVEYLLVAVLSNLSSMRVNENLDINPTHYLDINHADIVARIDLTEWETNPESTRYLTFLKGRVGRKVADFFMDFLGASEGLNAKAQNRGLLQAVDDFTAEAQLDKAERQNVRQQVYSYCNEQLQAGEEIELKSLSKELAGVSEVSFTEFAAEKGYELEESFPADRSTLRQLTKFAGSGGGLTINFDAMLLGERIFWDPATDTLTIKGTPPNLRDQLQRRTSGGN | 6.4 ± 0.28 | 6.91 ± 0.46 | 5.78 ± 0.17 | 5.911 ± 0.055 | 3.22 ± 0.17 | 6.07 ± 0.17 | 10.4 ± 2.2 | 6.08 ± 0.28 | 12 ± 2.2 | 5.81 ± 0.19 | 6.08 ± 0.094 | 12.7 ± 0.4
4 | MSSLINNAMSGLNAAQAALNTASNNISSYNVAGYTRQTTIMAQANSTLGAGGWVGNGVYVSGVQREYDAFITNQLRAAQTQSSGLTARYEQMSKIDNMLSTSTSSLATQMQDFFTSLQTLVSNAEDPAARQALIGKSEGLVNQFKTTDQYLRDQDKQVNIAIGASVDQINNYAKQIASLNDQISRLTGVGAGASPNNLLDQRDQLVSELNQIVGVEVSVQDGGTYNITMANGYSLVQGSTARQLAAVPSSADPSRTTVAYVDGTAGNIEIPEKLLNTGSLGGILTFRSQDLDQTRNTLGQLALAFAEAFNTQHKAGFDANGDAGEDFFAIGKPAVLQNTKNKGDVAIGATVTDASAVLATDYKISFDNNQWQVTRLASNTTFTVTPDANGKVAFDGLELTFTGTPAVNDSFTLKPVSDAIVNMDVLITDEAKIAMASEEDAGDSDNRNGQALLDLQSNSKTVGGAKSFNDAYASLVSDIGNKTATLKTSSATQGNVVTQLSNQQQSISGVNLDEEYGNLQRFQQYYLANAQVLQTANAIFDALINIR | 3.99 ± 0.38 | > 8 | – | > 8 | 0.385 ± 0.15 | 0.323 ± 0.065 | 0.835 ± 0.28 | 5.22 ± 0.16 | – | > 8 | – | –
5 | MGSQELQRKLGFWAVLAIAVGTTVGSGIFVSVGEVAKAAGTPWLTVLAFVIGGLIVIPQMCVYAELSTAYPENGADYVYLKNAGSRPLAFLSGWASFWANDAPSLSIMALAIVSNLGFLTPIDPLLGKFIAAGLIIAFMLLHLRSVEGGAAFQTLITIAKIIPFTIVIGLGIFWFKAENFAAPTTTAIGATGSFMALLAGISATSWSYTGMASICYMTGEIKNPGKTMPRALIGSCLLVLVLYTLLALVISGLMPFDKLANSETPISDALTWIPALGSTAGIFVAITAMIVILGSLSSCVMYQPRLEYAMAKDNLFFKCFGHVHPKYNTPDVSIILQGALGIFFIFVSDLTSLLGYFTLVMCFKNTLTFGSIIWCRKRDDYKPLWRTPAFGLMTTLAIASSLILVASTFVWAPIPGLICAVIVIATGLPAYAFWAKRSRQLNALS | – | – | – | – | 3.26 | – | – | – | – | – | – | –
6 | MTSSYLHFPEFDPVIFSIGPVALHWYGLMYLVGFIFAMWLATRRANRPGSGWTKNEVENLLYAGFLGVFLGGRIGYVLFYNFPQFMADPLYLFRVWDGGMSFHGGLIGVIVVMIIFARRTKRSFFQVSDFIAPLIPFGLGAGRLGNFINGELWGRVDPNFPFAMLFPGSRTEDILLLQTNPQWQSIFDTYGVLPRHPSQLYELLLEGVVLFIILNLYIRKPRPMGAVSGLFLIGYGAFRIIVEFFRQPDAQFTGAWVQYISMGQILSIPMIVAGVIMMVWAYRRSPQQHVS | > 8 | – | 7.73 | – | – | – | – | 6.89 ± 0.72 | – | – | 6.28 ± 0.24 | 11.5 ± 0.95
7 | MGKLTGKTALITGALQGIGEGIARTFARHGANLILLDISPEIEKLADELCGRGHRCTAVVADVRDPASVAAAIKRAKEKEGRIDILVNNAGVCRLGSFLDMSDDDRDFHIDINIKGVWNVTKAVLPEMIARKDGRIVMMSSVTGDMVADPGETAYALTKAAIVGLTKSLAVEYAQSGIRVNAICPGYVRTPMAESIARQSNPEDPESVLTEMAKAIPMRRLADPLEVGELAAFLASDESSYLTGTQNVIDGGSTLPETVSVGI | 5.394 ± 0.017 | 4.09 ± 0.14 | – | 4.12 ± 0.29 | 2.91 ± 0.32 | 6.12 ± 0.41 | 10.2 ± 1.1 | 5.35 | 6.28 | – | 6.25 ± 0.41 | 14.8 ± 0.61
8 | MKIRALLVAMSVATVLTGCQNMDSNGLLSSGAEAFQAYSLSDAQVKTLSDQACQEMDSKATIAPANSEYAKRLTTIANALGNNINGQPVNYKVYMAKDVNAFAMANGCIRVYSGLMDMMTDNEVEAVIGHEMGHVALGHVKKGMQVALGTNAVRVAAASAGGIVGSLSQSQLGNLGEKLVNSQFSQRQEAEADDYSYDLLRQRGISPAGLATSFEKLAKLEEGRQSSMFDDHPASAERAQHIRDRMSADGIK | 5.03 ± 0.95 | 5.9 ± 0.43 | – | 3.99 ± 0.98 | 2.69 ± 0.21 | 5.11 ± 0.41 | 8.35 ± 1.9 | 6.22 ± 0.35 | 10.2 ± 2.9 | 5.87 ± 0.4 | 3.16 ± 0.24 | 9.05 ± 5.4
